From patent US20070014799A1 come the findings set out here.

The target of assay [1] is monoclonal antibody ZAL2-103a producible from the hybridoma ZAL2-103 (FERM BP-8431). The assay is described as follows: competitive EIA: unlabeled human ZAQL-2 against HRP-labeled human ZAQL-2 on ZAL2-103a (50 ng/ml) captured on anti-mouse immunoglobulin plate.
Assay [2] has as its target monoclonal antibody ZAL2-106a producible from the hybridoma ZAL2-106 (FERM BP-8432). The experiment in a line: competitive EIA: unlabeled human ZAQL-2 against HRP-labeled human ZAQL-2 on ZAL2-106a (50 ng/ml) captured on anti-mouse immunoglobulin plate.

B1: Human ZAQL-2 (human Bv8 maturation peptide) (ligand)
chain: AVITGACDKDSQCGGGMCCAVSIWVKSIRICTPMGKLGDSCHPLTRKVPFFGRRMHHTCPCLPGLACLRTSFNRFICLAQK
As a reminder, the IC50 is the concentration at which inhibition is half-maximal. On to B1, for which the values for the IC50 in assay [1] and in assay [2] were 0.8 nM and 3 nM, respectively.
